Among the data in PMC10641529, “Selective targeting and clustering of phosphatidylserine lipids by RSV M protein is critical for virus particle production” (The Journal of Biological Chemistry, 2023) are stoichiometry N and Kd values, retold here.

Assay [1] deals with His6-GCN4-FCT (Histidine tag and GCN4 leucine zipper domain fused to the cytoplasmic tail of the RSV fusion (F) glycoprotein) (not stated | human respiratory syncytial virus). Description: SDS-PAGE with Western blotting; purified His-GCN4-FCT on SDS-PAGE, detected with an anti-His antibody. Background: In western blotting, separated proteins are transferred to a membrane and probed.

In assay [2] the target is T1, RSV M protein (Human respiratory syncytial virus A2, UniProt P0DOE7).
T1 construct: full-length M, recombinant from E. coli Rosetta 2 (pCDF-M); His6 tag cut with 3C protease; dimer
Description: LUV cosedimentation, SDS-PAGE densitometry. Format: binding. Particulars: PC:PS (70:30) LUVs; accessible PS 50 μM to 1.5 mM; 8 μM M; 150 mM NaCl, 10 mM Tris-HCl, pH 7.4, 25 °C; acyl chains of PS not told; read-out: Kd,app.

A word on the stoichiometry N: it is the number of molecules, sites or subunits per partner or assembly.

T1 sequence (P0DOE7 whole entry): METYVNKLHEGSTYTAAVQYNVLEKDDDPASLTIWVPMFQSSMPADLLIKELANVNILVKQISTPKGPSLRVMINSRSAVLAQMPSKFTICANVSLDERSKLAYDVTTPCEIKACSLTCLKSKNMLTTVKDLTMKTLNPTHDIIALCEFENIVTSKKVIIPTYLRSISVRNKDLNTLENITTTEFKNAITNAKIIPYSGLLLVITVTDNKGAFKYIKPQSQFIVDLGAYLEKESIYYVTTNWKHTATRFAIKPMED

As to “His6-GCN4-FCT (Histidine tag and GCN4 leucine zipper domain fused to the cytoplasmic tail of the RSV fusion (F) glycoprotein)”, in assay [1], the stoichiometry N was 3.
Regarding phosphatidylserine [PS], the Kd in assay [2] was 15 to 57 µM.
